The text below walks through data of article PMC5827449, “Structural analysis of group II chitinase (ChtII) catalysis completes the puzzle of chitin hydrolysis in insects” (The Journal of Biological Chemistry, 2018).

The data set relates to T1, CC(=O)N[C@H]1[C@H](Oc2ccc3c(C)cc(=O)oc3c2)O[C@H](CO)[C@@H](O[C@@H]2O[C@H](CO)[C@@H](O)[C@H](O)[C@H]2NC(C)=O)[C@@H]1O.
T1 construct: single GH18 catalytic domain C1 (core 1613-1855 and 1940-1988, insertion domain 1856-1939); His-tag purified from Pichia pastoris GS115
The data set can be described thus: fluorescence of released 4-methylumbelliferone. It counts as biochemical, Ostrinia furnacalis. To be noted: pH 6.0, 20 mM sodium phosphate, 303 K, 20 min, 30.0 °C. From the text: fluorescence of released 4-methylumbelliferone on OfChtII-C1

Usually Km stands for the substrate concentration at which the rate is half of its maximum. What is called kcat is the number of substrate molecules converted per active site and unit of time at saturation. What is called kcat/Km is the second-order rate constant that governs catalysis at low substrate concentration. “OfChtII-C1 (Ostrinia furnacalis; A1877I/D1864N/D1876G/DEL1865-1874/G1863E/K1875R/N1878H)”: the Michaelis constant (Km) is 15.52 ± 0.98 µM, the catalytic constant (kcat) was 0.5498 ± 0.0108 s⁻¹ and the catalytic efficiency (kcat/Km) stood at 35500 M⁻¹ s⁻¹.
